# Laboratory results: patent US20140235701, “NGF APTAMER AND APPLICATION THEREOF” (RIBOMIC INC., published 2014)
# Molecular target: T1, NGF (nerve growth factor) (Homo sapiens, UniProt P01138 P01138:122-241)
# Assay: SPR; more than 40N; high inhibition of receptor binding
# Settings: tags: R&D Systems; chain copies: 2
# T1 sequence (P01138 122-241, one chain of several): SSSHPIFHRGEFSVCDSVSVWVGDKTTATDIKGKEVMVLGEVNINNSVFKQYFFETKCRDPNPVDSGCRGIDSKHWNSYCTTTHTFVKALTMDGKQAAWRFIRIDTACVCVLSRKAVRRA
row,Binder,binding result
1,"GGGCACAUCCUGCUGCGUAGUUUCCGUCUCCGUGGCUGUUAUGUGC (ssRNA, 2'-F C and U; 2'-OH G; 2'-H (deoxy) A) [SEQ ID NO: 11]",binds
2,"SEQ ID NO: 10 (ssRNA, 2'-F C and U; 2'-OH G; 2'-H (deoxy) A) RNA: GGGAGAACUUCGACCAGAAGUUGGCACAUCCUGCUGCGUAGUUUCCGUCUCCGUGGCUGUUAUGUGCG",binds
3,"GGGGUCCUGCUGCGUAGUUUCCGUCUCCGUGGCUGUUACCCC (ssRNA, 2'-F C and U; 2'-OH G; 2'-H (deoxy) A) [SEQ ID NO: 13]",binds
4,"SEQ ID NO: 15 (ssRNA, 2'-F C and U; 2'-OH G; 2'-H (deoxy) A) RNA: GGGAGAACUUCGACCAGAAGUGCAAUACUUUCGCGGCAUAUGUGCAAACCUUGCCACGACUAUGUGCGCAUAC",binds
5,"SEQ ID NO: 16 (ssRNA, 2'-F C and U; 2'-OH G; 2'-H (deoxy) A) RNA: CGACCAGAAGUGCAAUACUUUCGCGGCAUAUGUGCAAACCUUGCCACGACUAUGUGCGCAUAC",binds
6,"SEQ ID NO: 14 (ssRNA, 2'-F C and U; 2'-OH G; 2'-H (deoxy) A) RNA: GGGAGAACUUCGACCAGAAGUGCAAUACUUUCGCGGCAUAUGUGCAAACCUUGCCACGACUAUGUGCGCAUACAUGGA",binds
7,"SEQ ID NO: 9 (ssRNA, 2'-F C and U; 2'-OH G; 2'-H (deoxy) A) RNA: GGGAGAACUUCGACCAGAAGUUGGCACAUCCUGCUGCGUAGUUUCCGUCUCCGUGGCUGUUAUGUGCGCAUAC",binds

# Same assay, conditions: tags: R&D Systems; chain copies: 2; stem 1 - internal loop 1 - stem 2 - loop 2 (consensus secondary structure 1)
row,Binder,binding result
1,"GGGUCCUGCUGCGUAGUUUCCGUCUCCGUGGCUGUUACCC (ssRNA, 2'-F C and U; 2'-OH G; 2'-H (deoxy) A) [SEQ ID NO: 12]",binds

# Molecular target: T1, NGF (nerve growth factor)
# Assay: cell_activity; neurite; TF-1 >0.3
# Settings: tags: R&D Systems; chain copies: 2
row,Binder,IC50 [nM]
1,"GGGUCCUGUGGAAGAGUUUCCGUCUCGUCCACUGUUACCC (ssRNA, as 89(4) plus 2'-OMe U4,A15,A31,A37; no 5' idT) [SEQ ID NO: 89(5)]",0.079
2,"GGGUCCUGUCUAAGAGUUUCCGUCUCGUAGACUGUUACCC (ssRNA, 2'-OMe except 2'-F C5,U7,U17-19,C20,C24,U25,U33,U36, 2'-OH G8,G34, dA12,dA13; 3' idT) [SEQ ID NO: 111(1)]",0.06
3,"GGGUCCUGGAUAAGAGUUUCCGUCUCGUAUCCUGUUACCC (ssRNA, as 82(48) without 5' idT; PS between A13 and G14) [SEQ ID NO: 82(61)]",0.031
4,"GGGUCCUGGAUAAGAGUUUCCGUCUCGUAUCCUGUUACCC (ssRNA, as 82(48) without 5' idT; PS between U33 and G34) [SEQ ID NO: 82(62)]",0.039
5,"GGGUCCUGGAUAAGAGUUUCCGUCUCGUAUCCUGUUACCC (ssRNA, as 82(48) without 5' idT; PS between U11 and A12) [SEQ ID NO: 82(59)]",0.034
6,"GGGUCCUGGAUAAGAGUUUCCGUCUCGUAUCCUGUUACCC (ssRNA, as 82(48) without 5' idT; PS between U7 and G8) [SEQ ID NO: 82(57)]",0.045
7,"GGGUCCUGGAUAAGAGUUUCCGUCUCGUAUCCUGUUACCC (ssRNA, as 82(48) without 5' idT; PS between G8 and G9) [SEQ ID NO: 82(58)]",0.072

# Molecular target: T1, NGF (nerve growth factor)
# Assay: cell_activity; neurite; TF-1 <0.3
# Settings: tags: R&D Systems; chain copies: 2
row,Binder,IC50 [nM]
1,"GGGUCCUGACUAAGAGUUUCCGUCUCGUAGUCUGUUACCC (ssRNA, 2'-F C/U, dA, 2'-OH G) [SEQ ID NO: 77]",< 0.3
2,"GGGUCCUGGCCAAGAGUUUCCGUCUCGUGGUCUGUUACCC (ssRNA, 2'-F C/U, dA, 2'-OH G) [SEQ ID NO: 78]",< 0.3
3,"GGGUCCUGAUUAAGAGUUUCCGUCUCGUAAUCUGUUACCC (ssRNA, 2'-F C/U, dA, 2'-OH G) [SEQ ID NO: 76]",< 0.3
4,"GGGUCCUGGCUAAGAGUUUCCGUCUCGUAGUCUGUUACCC (ssRNA, 2'-F C/U, dA, 2'-OH G) [SEQ ID NO: 80]",< 0.3
5,"GGGUCCUGGUUAAGAGUUUCCGUCUCGUAACCUGUUACCC (ssRNA, 2'-F C/U, dA, 2'-OH G) [SEQ ID NO: 79]",< 0.3
6,"GGGUCCUGGAUAAGAGUUUCCGUCUCGUAUCCUGUUACCC (ssRNA, 2'-F C/U, dA, 2'-OH G) [SEQ ID NO: 82]",< 0.3
7,"GGGUCCUGUACAAGAGUUUCCGUCUCGUGUACUGUUACCC (ssRNA, 2'-F C/U, dA, 2'-OH G) [SEQ ID NO: 83]",< 0.3

# Molecular target: T1, NGF (nerve growth factor)
# Assay: cell_activity; neurite outgrowth inhibition
# Settings: tags: R&D Systems; chain copies: 2
# Procedure: (§1) The cells (2500 cells per well) were cultured for one day in an RPMI-1640 medium containing 2.5% horse serum and 1.25% fetal bovine serum in a 96 well flat-bottom plate coated with collagen type IV. […] Two days later, the cytoplasm and nuclei were stained using Cellomics Neurite Outgrowth Kit (manufactured by Thermo Scientific), and neurite length per cell was measured by Cellomics ArrayScan VTI (manufactured by Thermo Scientific). With the neurite length per cell obtained by the addition of NGF alone as inhibitory activity 0%, and that of the cell obtained by NGF free culture for 2 days as inhibitory activity 100%, the inhibitory activity of the aptamer was calculated from the neurite length per cell obtained by culturing with the addition of NGF and the aptamer in mixture.
row,Binder,IC50 [nM]
1,"GGGUCCUGUCGCUAAGUUUCCGUCUUUGCGGCUGUUACCC (ssRNA, 2'-F C and U; 2'-OH G; 2'-H (deoxy) A) [SEQ ID NO: 84]",0.793
2,"GGGUCCUGGAUAAGAGUUUCCGUCUCGUAUCCUGUUACCC (ssRNA, 2'-F C5,U7,U17,U18,U19,C20,C24,U25,U33,U36; 2'-OH G8,G34; 2'-H A; 2'-OMe all other; 5' PEG40TS2; 3' idT) [SEQ ID NO: 82(64)]",0.107
3,"GGGUCCUGGAUAAGAGTUUCCGUCUCGUAUCCUGUUACCC (ssRNA, 2'-F C5,U7,U18,U19,C20,C24,U25,U33,U36; dT17; 2'-OH G8,G34; 2'-H A; 2'-OMe all other; idT 5' and 3') [SEQ ID NO: 160]",0.038
4,"GGGUCCUGGAUAAGAGUUUCCGUCUCGUAUCCUGUUACCC (ssRNA, 2'-F all C and U; 2'-OMe G1-3,G9,G14,G16,G22,G27; 2'-OH G8,G34; 2'-H A; idT 5' and 3') [SEQ ID NO: 82(1)]",0.7
5,"GGGUCCUGGAUAAGAGUUUCCGUCUCGUAUCCUGUUACCC (ssRNA, 2'-F all C and U; 2'-OMe G1-3,G9,G14,G16,G22,G27; 2'-OH G8,G34; 2'-H A; 5' PEG40GS2; 3' idT) [SEQ ID NO: 82(56)]",0.067
6,"GGGUCCUGGAUAAGAGUUUCCGUCUCGUAUCCTGUUACCC (ssRNA, 2'-F C5,U7,U17,U18,U19,C20,C24,U25,U36; dT33; 2'-OH G8,G34; 2'-H A; 2'-OMe all other; idT 5' and 3') [SEQ ID NO: 161]",0.036

# Molecular target: T1, NGF (nerve growth factor)
# Assay: cell_activity; neurite; TF-1 >0.1
# Settings: tags: R&D Systems; chain copies: 2
row,Binder,IC50 [nM]
1,"GGGUCCUGGAUAAGAGTUUCCGUCUCGUAUCCTGUUACCC (ssRNA, as 82(48) except dU7,dT17,dT33,dU36) [SEQ ID NO: 168]",0.261
2,"GGGUCCUGGAUAAGAGUUUCCGUCUCGUAUCCUGUUACCC (ssRNA, as 82(25) except 2'-OMe A12) [SEQ ID NO: 82(44)]",0.097

# Molecular target: T1, NGF (nerve growth factor)
# Assay: SPR; strong binding
# Settings: tags: R&D Systems; chain copies: 2
row,Binder,binding result
1,"GGGUCCUGUUGCGUAGUUUCCUUCUACGUGGCUGUUACCC (ssRNA, 2'-F C and U; 2'-OH G; 2'-H (deoxy) A) [SEQ ID NO: 45]",binds
2,"GGGUCCUGCUGCGUAGUUUCCAUCUGCGUGGCUGUUACCC (ssRNA, 2'-F C and U; 2'-OH G; 2'-H (deoxy) A) [SEQ ID NO: 40]",binds
3,"GGGUCCUGCUGCGAAGUUUCCUUCUUCGUGGCUGUUACCC (ssRNA, 2'-F C and U; 2'-OH G; 2'-H (deoxy) A) [SEQ ID NO: 41]",binds
4,"GGGUCCUGCUGCGGAGUUUCCUUCUUCGUGGCUGUUACCC (ssRNA, 2'-F C and U; 2'-OH G; 2'-H (deoxy) A) [SEQ ID NO: 43]",binds
5,"GGGUCCUGCUGCGCAGUUUCCCUCUGCGUGGCUGUUACCC (ssRNA, 2'-F C and U; 2'-OH G; 2'-H (deoxy) A) [SEQ ID NO: 42]",binds
6,"GGGUCCUGCUGCGCAGUUUCCGUCUGCGUGGCUGUUACCC (ssRNA, 2'-F C and U; 2'-OH G; 2'-H (deoxy) A) [SEQ ID NO: 39]",binds

# Molecular target: T1, NGF (nerve growth factor)
# Assay: cell_activity; neurite
# Settings: tags: R&D Systems; chain copies: 2
# Procedure: as §1
row,Binder,IC50 [nM]
1,"GGGUCCUGAUGCGUAGUUUCCGUCUGCGUGUCUGUUACCC (ssRNA, 2'-OMe G (G8,G34 2'-OH), dA, 2'-F C/U; 5',3' idT) [SEQ ID NO: 68(1)]",≤ 1
2,"GGGUCCUGCUGCGCAGUUUCCGUCUACGUGGCUGUUACCC (ssRNA, 2'-OMe G (G8,G34 2'-OH), dA, 2'-F C/U; 5',3' idT) [SEQ ID NO: 155]",≤ 1
3,"GGGUCCUGCUGCGUAGUUUCCGUCUGCGUGGCUGUUACCC (ssRNA, 2'-OMe G (G8,G34 2'-OH), dA, 2'-F C/U; 5' idT, 3' PEG40GS2) [SEQ ID NO: 154]",≤ 1
4,"GGGUCCUGCUGCAUAGUUUCCGUCUGUGUGGCUGUUACCC (ssRNA, 2'-OMe G (G8,G34 2'-OH), dA, 2'-F C/U; 5',3' idT) [SEQ ID NO: 71(1)]",≤ 1
5,"GGGUCCUGCUGCGUAGUUUCCGUCUGCGUGGCUGUUACCC (ssRNA, 2'-OMe G (G8,G34 2'-OH), dA, 2'-F C/U; 5',3' idT) [SEQ ID NO: 152]",≤ 1
6,"GGGUCCUGCUGCGUAGUUUCCGUCUGCGUGGCUGUUACCC (ssRNA, 2'-OMe G (G8,G26,G34 2'-OH), dA, 2'-F C/U; 5',3' idT) [SEQ ID NO: 151]",≤ 1
7,"GGGUCCUGCUGCGUAGUUUCCGUCUGCGUGGCUGUUACCC (ssRNA, 2'-OMe G (G8,G34 2'-OH), dA, 2'-F C/U; 5' PEG40GS2, 3' idT) [SEQ ID NO: 153]",≤ 1
8,"GGGUCCUGCUGCAGAGUUUCCGUCUCGGUGGCUGUUACCC (ssRNA, 2'-OMe G (G8,G34 2'-OH), dA, 2'-F C/U; 5',3' idT) [SEQ ID NO: 74(1)]",≤ 1
9,"GGGUCCUGCUGCGUAGUUUCCGUCUUCGCGGCUGUUACCC (ssRNA, 2'-OMe G (G8,G34 2'-OH), dA, 2'-F C/U; 5',3' idT) [SEQ ID NO: 38(1)]",≤ 1
10,"GGGUCCUGCUGCAUAGUUUCCGUCUUUGUGGCUGUUACCC (ssRNA, 2'-OMe G (G8,G34 2'-OH), dA, 2'-F C/U; 5',3' idT) [SEQ ID NO: 66(1)]",≤ 1

# Molecular target: T1, NGF (nerve growth factor)
# Assay: SPR; strong neurite inhibition at 10 nM
# Settings: tags: R&D Systems; chain copies: 2
row,Binder,binding result
1,"GGGUCCUGCUGCGUAGUUUCCGUCUGCGGAGCUGUUACCC (ssRNA, 2'-F C/U, dA, 2'-OH G) [SEQ ID NO: 94]",binds
2,"GGGUCCUGCCGCGUAGUUUCCGUCUUCGCGGUUGUUACCC (ssRNA, 2'-F C/U, dA, 2'-OH G) [SEQ ID NO: 93]",binds
